Measured values from publication PMC8888484, “Ubr1-induced selective endophagy/autophagy protects against the endosomal and Ca^2+-induced proteostasis disease stress” (Cellular and Molecular Life Sciences: CMLS, 2022).

T1: HA-MLC1-S280L-Bir* (human (by the printed GeneID 23209; the …, UniProt Q15049 1-377, S280L)
T1 construct: MLC1, GeneID 23209, disease-causing variant S280L, as a chimera with Bir*; also called SL-b
T1 sequence (looked up): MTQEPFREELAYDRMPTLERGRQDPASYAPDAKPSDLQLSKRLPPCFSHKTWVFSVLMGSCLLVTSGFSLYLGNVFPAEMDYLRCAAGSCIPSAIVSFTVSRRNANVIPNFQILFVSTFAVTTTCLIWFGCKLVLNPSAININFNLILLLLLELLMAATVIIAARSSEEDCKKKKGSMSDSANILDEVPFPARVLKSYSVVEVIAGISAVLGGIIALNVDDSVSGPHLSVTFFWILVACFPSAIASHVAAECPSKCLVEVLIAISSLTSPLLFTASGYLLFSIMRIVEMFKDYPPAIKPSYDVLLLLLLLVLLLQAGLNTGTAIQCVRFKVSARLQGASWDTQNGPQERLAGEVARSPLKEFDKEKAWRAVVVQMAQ

B1: endogenous Ubr1 (enzyme, UniProt Q8IWV7 1-1749, looked up)
chain: MADEEAGGTERMEISAELPQTPQRLASWWDQQVDFYTAFLHHLAQLVPEIYFAEMDPDLEKQEESVQMSIFTPLEWYLFGEDPDICLEKLKHSGAFQLCGRVFKSGETTYSCRDCAIDPTCVLCMDCFQDSVHKNHRYKMHTSTGGGFCDCGDTEAWKTGPFCVNHEPGRAGTIKENSRCPLNEEVIVQARKIFPSVIKYVVEMTIWEEEKELPPELQIREKNERYYCVLFNDEHHSYDHVIYSLQRALDCELAEAQLHTTAIDKEGRRAVKAGAYAACQEAKEDIKSHSENVSQHPLHVEVLHSEIMAHQKFALRLGSWMNKIMSYSSDFRQIFCQACLREEPDSENPCLISRLMLWDAKLYKGARKILHELIFSSFFMEMEYKKLFAMEFVKYYKQLQKEYISDDHDRSISITALSVQMFTVPTLARHLIEEQNVISVITETLLEVLPEYLDRNNKFNFQGYSQDKLGRVYAVICDLKYILISKPTIWTERLRMQFLEGFRSFLKILTCMQGMEEIRRQVGQHIEVDPDWEAAIAIQMQLKNILLMFQEWCACDEELLLVAYKECHKAVMRCSTSFISSSKTVVQSCGHSLETKSYRVSEDLVSIHLPLSRTLAGLHVRLSRLGAVSRLHEFVSFEDFQVEVLVEYPLRCLVLVAQVVAEMWRRNGLSLISQVFYYQDVKCREEMYDKDIIMLQIGASLMDPNKFLLLVLQRYELAEAFNKTISTKDQDLIKQYNTLIEEMLQVLIYIVGERYVPGVGNVTKEEVTMREIIHLLCIEPMPHSAIAKNLPENENNETGLENVINKVATFKKPGVSGHGVYELKDESLKDFNMYFYHYSKTQHSKAEHMQKKRRKQENKDEALPPPPPPEFCPAFSKVINLLNCDIMMYILRTVFERAIDTDSNLWTEGMLQMAFHILALGLLEEKQQLQKAPEEEVTFDFYHKASRLGSSAMNIQMLLEKLKGIPQLEGQKDMITWILQMFDTVKRLREKSCLIVATTSGSESIKNDEITHDKEKAERKRKAEAARLHRQKIMAQMSALQKNFIETHKLMYDNTSEMPGKEDSIMEEESTPAVSDYSRIALGPKRGPSVTEKEVLTCILCQEEQEVKIENNAMVLSACVQKSTALTQHRGKPIELSGEALDPLFMDPDLAYGTYTGSCGHVMHAVCWQKYFEAVQLSSQQRIHVDLFDLESGEYLCPLCKSLCNTVIPIIPLQPQKINSENADALAQLLTLARWIQTVLARISGYNIRHAKGENPIPIFFNQGMGDSTLEFHSILSFGVESSIKYSNSIKEMVILFATTIYRIGLKVPPDERDPRVPMLTWSTCAFTIQAIENLLGDEGKPLFGALQNRQHNGLKALMQFAVAQRITCPQVLIQKHLVRLLSVVLPNIKSEDTPCLLSIDLFHVLVGAVLAFPSLYWDDPVDLQPSSVSSSYNHLYLFHLITMAHMLQILLTVDTGLPLAQVQEDSEEAHSASSFFAEISQYTSGSIGCDIPGWYLWVSLKNGITPYLRCAALFFHYLLGVTPPEELHTNSAEGEYSALCSYLSLPTNLFLLFQEYWDTVRPLLQRWCADPALLNCLKQKNTVVRYPRKRNSLIELPDDYSCLLNQASHFRCPRSADDERKHPVLCLFCGAILCSQNICCQEIVNGEEVGACIFHALHCGAGVCIFLKIRECRVVLVEGKARGCAYPAPYLDEYGETDPGLKRGNPLHLSRERYRKLHLVWQQHCIIEEIARSQETNQMLFGFNWQLL
modifications: biotinylated in cells by MLC1-Bir*
notes: Ubr1, endogenous, detected with anti-Ubr1 (Abcam)

Tests used:
[1] = target: mutants (MLC1 mutants of Fig. 3A); experiment: co-IP; cell surface immunoprecipitation (cs-IP): anti-GlialCAM Ab bound to live HeLa cells 45 min on ice, unbound Ab washed off, lysis (0.4% NP-40 in co-IP assays), MLC1/GlialCAM complex precipitated, Western blot; signals normalised to precipitated MLC1; for Fig. 7G cells with siUbr1 or siNT and Flag-Ubr1-wt or -CI
HA-MLC1-S280L-Bir* = target: T1, HA-MLC1-S280L-Bir*; experiment: proximity labelling; proximity biotinylation with MLC1-Bir* chimera as bait, 50 µM biotin, cs-IP with anti-GlialCAM Ab, biotinylated proteins recovered on streptavidin/neutravidin beads, Western blot for Ubr1; normalised for the PM amount of MLC1; settings: partners not purified

Row | Molecule | fold association against MLC1-wt [1] | fold biotinylation against MLC1-wt (HA-MLC1-S280L-Bir*)
1 | CHIP (C-terminus of Hsc70-interacting protein) (from UniProt Q9UNE7 1-303) | 2 to 5 fold | 
2 | B1 |  | ~8 fold
